Results taken from patent US20160369008A1.

What was measured:
[1] = molecular target: latent human PAI-1 (human) (UniProt P05121); assay: ELISA, latent human PAI-1 on the plate
[2] = molecular target: tPA-monkey PAI-1 complex (monkey); assay: ELISA, tPA-monkey PAI-1 complex on the plate
[3] = molecular target: active PAI-1 in monkey plasma (cynomolgus monkey) (UniProt G7P138); assay: ELISA: inhibition of the capture of active PAI-1 of monkey plasma on immobilised uPA (Example 9)
[4] = molecular target: uPA-monkey PAI-1 complex (monkey) (UniProt P00749); assay: ELISA, uPA-monkey PAI-1 complex on the plate
[5] = molecular target: active monkey PAI-1 in complex with vitronectin (monkey); assay: ELISA, VTN-monkey PAI-1 complex on the plate
Sequence of active monkey PAI-1 in complex with vitronectin (monkey) (P04004 20-478, one chain of several): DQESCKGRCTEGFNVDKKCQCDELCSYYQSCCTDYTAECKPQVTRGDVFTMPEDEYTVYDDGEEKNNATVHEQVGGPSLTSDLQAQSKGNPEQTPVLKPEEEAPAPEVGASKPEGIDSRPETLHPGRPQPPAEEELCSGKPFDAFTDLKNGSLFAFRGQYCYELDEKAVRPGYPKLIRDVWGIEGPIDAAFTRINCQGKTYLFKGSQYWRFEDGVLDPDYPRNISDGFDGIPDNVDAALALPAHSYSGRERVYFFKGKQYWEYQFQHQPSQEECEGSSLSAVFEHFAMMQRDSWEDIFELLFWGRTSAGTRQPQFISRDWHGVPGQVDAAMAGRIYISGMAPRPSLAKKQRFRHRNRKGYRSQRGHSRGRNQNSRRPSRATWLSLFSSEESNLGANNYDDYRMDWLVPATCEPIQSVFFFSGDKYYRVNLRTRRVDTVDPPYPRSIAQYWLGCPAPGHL

[6] = molecular target: latent monkey PAI-1 (monkey) (UniProt G7P138); assay: ELISA, latent monkey PAI-1 on the plate
[7] = molecular target: active PAI-1 in human plasma (human) (UniProt P05121); assay: ELISA: inhibition of the capture of active PAI-1 of human plasma on immobilised uPA (Example 9)
[8] = molecular target: human PAI-1 in complex with uPA (human) (UniProt P05121); assay: ELISA, uPA-PAI-1 complex on the plate
[9] = molecular target: active human PAI-1 in complex with vitronectin (human) (UniProt P05121); assay: ELISA, VTN-PAI-1 complex on the plate
[10] = molecular target: recombinant active human PAI-1 (human) (UniProt P05121); assay: cell-based or functional assay
[11] = molecular target: human PAI-1 in complex with tPA (human) (UniProt P05121); assay: ELISA, tPA-PAI-1 complex on the plate

Sequence of MEDI-579 (antibody) (VH): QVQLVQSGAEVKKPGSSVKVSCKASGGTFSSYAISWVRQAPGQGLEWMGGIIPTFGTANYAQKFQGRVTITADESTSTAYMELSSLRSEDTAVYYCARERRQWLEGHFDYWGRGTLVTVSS
Sequence of MEDI-579 (antibody) (VL): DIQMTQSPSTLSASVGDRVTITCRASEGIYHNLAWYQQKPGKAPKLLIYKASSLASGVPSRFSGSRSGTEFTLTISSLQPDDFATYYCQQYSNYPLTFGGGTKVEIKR
Sequence of tPA-monkey PAI-1 complex (monkey) (P00750 36-562, one chain of several): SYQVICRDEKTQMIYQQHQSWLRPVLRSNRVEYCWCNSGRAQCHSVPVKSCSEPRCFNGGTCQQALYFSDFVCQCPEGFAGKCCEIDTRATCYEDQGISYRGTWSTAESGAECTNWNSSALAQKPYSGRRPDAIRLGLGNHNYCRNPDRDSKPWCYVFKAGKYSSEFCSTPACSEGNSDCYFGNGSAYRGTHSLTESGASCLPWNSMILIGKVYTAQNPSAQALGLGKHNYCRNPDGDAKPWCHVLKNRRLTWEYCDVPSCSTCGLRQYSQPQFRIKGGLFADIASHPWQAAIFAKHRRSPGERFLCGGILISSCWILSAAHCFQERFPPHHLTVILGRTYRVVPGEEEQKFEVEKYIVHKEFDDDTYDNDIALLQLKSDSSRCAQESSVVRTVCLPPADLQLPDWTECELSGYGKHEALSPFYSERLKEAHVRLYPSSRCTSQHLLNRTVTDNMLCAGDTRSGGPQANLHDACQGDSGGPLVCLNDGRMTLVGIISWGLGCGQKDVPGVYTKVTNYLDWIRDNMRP

## MEDI-579 (antibody)
[1]
  EC50: 22.1 ng/mL
[2]
  EC50: 4.3 ng/mL
[3]
  IC50: 0.83 ng/mL
[4]
  EC50: 5.4 ng/mL
[5]
  EC50: 4.1 ng/mL
[6]
  EC50: 48.2 ng/mL
[7]
  IC50: 0.73 ng/mL
[8]
  EC50: 6.1 ng/mL
[9]
  EC50: 5.2 ng/mL
[10]
  EC50 value, taking the activity of uPA as an indicator (cleavage of a fluorogenic uPA substrate peptide): 42.1 ng/mL
[11]
  EC50: 3.2 ng/mL
